Measured values published in article doi:10.1101/296376 (bioRxiv, 2018).

Target: Miro1-ABC (aa 1-592), C-terminal 6xHis-tag (human, UniProt Q8IXI2 1-592)
Experiment: pull-down

Chain of Miro1-ABC (aa 1-592), C-terminal 6xHis-tag (Q8IXI2 1-592): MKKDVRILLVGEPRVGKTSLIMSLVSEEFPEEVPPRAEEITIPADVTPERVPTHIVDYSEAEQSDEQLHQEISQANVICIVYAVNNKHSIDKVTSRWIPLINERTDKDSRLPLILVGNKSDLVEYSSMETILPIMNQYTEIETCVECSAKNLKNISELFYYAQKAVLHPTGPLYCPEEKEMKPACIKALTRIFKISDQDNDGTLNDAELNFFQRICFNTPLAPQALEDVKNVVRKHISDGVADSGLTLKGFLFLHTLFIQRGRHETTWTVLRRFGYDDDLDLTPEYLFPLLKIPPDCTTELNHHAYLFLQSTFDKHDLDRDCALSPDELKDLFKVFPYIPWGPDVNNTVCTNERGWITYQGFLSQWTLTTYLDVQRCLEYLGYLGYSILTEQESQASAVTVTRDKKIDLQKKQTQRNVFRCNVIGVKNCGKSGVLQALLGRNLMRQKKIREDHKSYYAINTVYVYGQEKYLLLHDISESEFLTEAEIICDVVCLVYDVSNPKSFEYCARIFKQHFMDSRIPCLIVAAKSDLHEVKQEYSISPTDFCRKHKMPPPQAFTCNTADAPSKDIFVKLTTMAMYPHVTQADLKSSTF

binding result: binds
B1: Myo19 C-tail (aa 898-970)-FLAG (domain or fragment)
chain: not shown
